These results are taken from US20080058636A1, “METHODS OF MYOCARDIAL IMAGING” (Epix Pharmaceuticals, Inc., priority 2005, published 2008).

Bridge positions count the residues as written; N and C are the ends. Square brackets hold non-standard residues; d marks the D form. Ends that are not written are not given here. bb‑DTPA gadolinium tetramer = not defined here

The target in series [1] is T1, dried human collagen type I (Homo sapiens, UniProt P02452+P08123).
T1 construct: Acid soluble human collagen extracted from placenta; purchased Sigma C7774; host or cells: human placenta (tissue extract)
T1 sequence (P02452 162-1218 limits assumed): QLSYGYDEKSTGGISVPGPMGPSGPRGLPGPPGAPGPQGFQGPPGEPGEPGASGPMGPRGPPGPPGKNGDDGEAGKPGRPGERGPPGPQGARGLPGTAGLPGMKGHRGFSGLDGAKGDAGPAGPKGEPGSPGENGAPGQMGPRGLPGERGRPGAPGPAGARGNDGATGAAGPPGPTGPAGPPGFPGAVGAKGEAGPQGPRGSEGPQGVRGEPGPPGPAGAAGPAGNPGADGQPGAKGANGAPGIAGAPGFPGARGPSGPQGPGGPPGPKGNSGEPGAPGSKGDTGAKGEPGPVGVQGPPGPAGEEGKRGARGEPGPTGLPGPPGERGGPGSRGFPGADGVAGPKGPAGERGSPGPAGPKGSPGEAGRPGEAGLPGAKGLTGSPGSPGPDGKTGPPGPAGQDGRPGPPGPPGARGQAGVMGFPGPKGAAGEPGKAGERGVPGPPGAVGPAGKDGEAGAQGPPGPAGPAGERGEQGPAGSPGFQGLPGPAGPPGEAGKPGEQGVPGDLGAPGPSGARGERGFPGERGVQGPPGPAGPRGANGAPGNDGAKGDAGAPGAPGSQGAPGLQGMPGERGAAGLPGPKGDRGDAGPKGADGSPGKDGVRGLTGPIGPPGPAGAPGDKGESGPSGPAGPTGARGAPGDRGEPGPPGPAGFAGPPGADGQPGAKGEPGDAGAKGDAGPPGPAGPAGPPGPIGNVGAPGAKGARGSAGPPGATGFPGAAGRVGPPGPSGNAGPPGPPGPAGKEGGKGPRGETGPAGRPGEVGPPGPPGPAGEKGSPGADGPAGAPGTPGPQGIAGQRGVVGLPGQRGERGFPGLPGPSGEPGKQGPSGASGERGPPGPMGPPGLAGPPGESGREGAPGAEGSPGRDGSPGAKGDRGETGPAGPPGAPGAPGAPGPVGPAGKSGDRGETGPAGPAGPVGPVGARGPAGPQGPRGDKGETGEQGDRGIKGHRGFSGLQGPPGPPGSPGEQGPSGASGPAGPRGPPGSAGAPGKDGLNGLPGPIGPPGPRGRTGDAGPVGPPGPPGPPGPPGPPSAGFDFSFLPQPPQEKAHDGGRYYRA
T1 sequence (P08123 80-1119 limits assumed): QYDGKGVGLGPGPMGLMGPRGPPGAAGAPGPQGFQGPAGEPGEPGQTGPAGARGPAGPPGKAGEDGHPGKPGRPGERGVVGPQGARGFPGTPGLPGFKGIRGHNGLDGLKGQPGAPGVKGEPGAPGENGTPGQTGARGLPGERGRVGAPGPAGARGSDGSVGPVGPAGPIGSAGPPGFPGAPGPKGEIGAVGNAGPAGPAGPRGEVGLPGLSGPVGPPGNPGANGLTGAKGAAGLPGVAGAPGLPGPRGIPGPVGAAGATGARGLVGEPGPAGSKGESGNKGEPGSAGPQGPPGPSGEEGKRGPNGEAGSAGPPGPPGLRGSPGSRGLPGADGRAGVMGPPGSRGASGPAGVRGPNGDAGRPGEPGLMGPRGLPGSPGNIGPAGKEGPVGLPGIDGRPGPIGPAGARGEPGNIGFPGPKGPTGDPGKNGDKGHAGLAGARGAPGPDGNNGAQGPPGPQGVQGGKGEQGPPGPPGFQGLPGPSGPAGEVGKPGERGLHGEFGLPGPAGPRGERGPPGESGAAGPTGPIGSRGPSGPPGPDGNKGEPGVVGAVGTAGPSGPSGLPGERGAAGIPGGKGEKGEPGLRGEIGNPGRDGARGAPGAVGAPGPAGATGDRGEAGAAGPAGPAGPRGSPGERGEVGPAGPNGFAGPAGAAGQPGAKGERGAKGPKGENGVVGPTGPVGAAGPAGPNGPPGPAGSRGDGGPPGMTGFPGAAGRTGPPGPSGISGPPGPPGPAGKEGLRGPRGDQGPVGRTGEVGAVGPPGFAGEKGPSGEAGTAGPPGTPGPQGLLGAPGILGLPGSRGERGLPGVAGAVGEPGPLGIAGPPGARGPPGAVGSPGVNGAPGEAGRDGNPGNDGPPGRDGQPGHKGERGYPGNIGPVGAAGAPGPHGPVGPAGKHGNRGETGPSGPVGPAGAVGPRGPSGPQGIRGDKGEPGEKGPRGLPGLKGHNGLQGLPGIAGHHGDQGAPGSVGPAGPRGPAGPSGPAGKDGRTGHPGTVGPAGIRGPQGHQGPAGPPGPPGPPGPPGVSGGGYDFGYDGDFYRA
The series can be described thus: Dried collagen assay (DCA), human collagen. In kind it is binding. The note with it: 5 μM peptide in PBS pH 7.4, 2 hours at room temperature; percent bound.
Experimental: Acid soluble human collagen extracted from placenta (Sigma, cat# C7774, lot# 083K375) is dissolved in 15 mM HCl (3.5 mg/ml) by vortexing and gently shaking for 3-4 hours at 4° C. The acid soluble collagen is dissolved against PBS, pH 7.4 (three buffer exchanges are used). […] Percent gelation (fibril formation) of the collagen is determined by incubating 10 μM collagen (3.3 mg/ml) at 37° C. for 6 hours.

Series [2] concerns the target T2, dried rat collagen type I (Rattus norvegicus, UniProt P02454+P02466).
T2 construct: Rat collagen (acid soluble, type I, rat tail, Upstate USA, Inc, cat# 08-115); purchased Upstate USA, Inc 08-115; host or cells: rat tail (tissue extract)
The series can be described thus: Dried collagen assay (DCA), rat collagen. The series is classed as binding. The conditions noted are these: for % Collagen Binding, Dried Rat: 5 μM peptide in PBS pH 7.4, 2 hours at room temperature, percent bound. As to the method:
Peptides identified using the phage-display protocol were screened using dried collagen assays (DCA) as described in A.-D. below.
For the final assay, a 1:10 volume of 10×PBS (100 mM NaH2PO4, 1.5 M NaCl pH 7.4) is added to the collagen solution (final 1×PBS) and incubated at 37° C. for 2 hours.
An additional 90 μL is reserved in a HPLC glass vial as a measure of the total concentration.

Series [3] has as its system perfused Langendorff rat heart. The series can be described thus: Equilibrium binding to perfused Langendorff rat heart. The conditions noted are these: for heart uptake relative to GdDTPA: perfused rat heart; for Heart: 10 minutes recirculating perfusion. As to the method: After deep anesthesia with pentobarbital (80 mg/kg ip), the chest cavity of a male Sprague Dawley rat (300 g) was opened, retracted and the heart was removed immediately and placed in an ice-cold normal Krebs-Henseleit (K-H) solution (NaCl, 118 mM; KCl, 4.7 mM; CaCl2, 2.5 mM; MgSO4, 1.2 mM; KH2PO4, 1.2 mM; NaHCO3, 25 mM; glucose, 5.5 mM). A K-H buffer filled 20 Gauge needle was inserted into the apex of the heart penetrating into the bottom of the chamber. This was attached to a pressure transducer used to record and monitor heart function. Perfusion pressure (60 mmHg) was monitored using a second transducer. The heart was perfused at a constant flow rate of 10-12 mL/min with 37° C. Krebs-Henseleit buffer saturated with a mixture of 95% O2 and 5% CO2 gas. The heart was paced at 300 beats/min.
Two peptide test articles, a high collagen binding peptide (SEQ ID NO: 144) and a low collagen binding peptide (SEQ ID NO: 173), are compared to GdDTPA. The appropriate test article was added to the K-H buffer solution to a total concentration of either 3 or 30 μM. Also added to the K-H buffer was a radiotracer analog of each peptide or GdDTPA. For the peptides, the radiotracer was an aliquot of the appropriate I-125 labeled peptide derivative (see Example 5 for protocol). For GdDTPA, the tracer added was Tc-99m labeled DTPA. The amount of radioactivity added to the buffer solution was 1-5 μCi.
The heart was perfused for a period of 10 minutes and the perfusion solution was recycled through the heart. The total volume of K-H buffer used was 50-60 mL. After 10 min, the heart was removed from the apparatus and any connective tissue was removed. The heart was opened, fluid in the chambers drained, and the interior blotted dry with filter paper. The heart was then weighed and the radioactivity in the heart measured with a Packard Cobra 5003 Gamma Scintillation counter. An aliquot of the K-H buffer was also weighed and counted. Studies were performed at least in duplicate.
The dual peptide gadolinium tetramer (Compound ID 803) was compared to GdDTPA. Compound ID 803 and GdDTPA were added to the K-H buffer solution to a total concentration of 3 μM. Also added to the K-H buffer was a radiotracer analog of Compound ID 803 or GdDTPA. For Compound ID 803, the radiotracer was an aliquot of the In-111 labeled compound. For GdDTPA, the tracer added was Tc-99m labeled DTPA. The amount of radioactivity added to the buffer solution was 1-5 μCi.

Series [4] relates to perfused Langendorff rat heart. The series can be described thus: Washout kinetics from perfused Langendorff rat heart. The conditions noted are these: for fraction of compound present at 0 minutes post infusion that remains at 10 minutes: 10 minutes after infusion. As to the method: A K-H buffer filled 20 Gauge needle was inserted into the apex of the heart penetrating into the bottom of the chamber. This was attached to a pressure transducer used to record and monitor heart function. Perfusion pressure (60 mmHg) was monitored using a second transducer. The heart was perfused at a constant flow rate of 10-12 mL/min with 37° C. […] The heart was paced at 300 beats/min.
A Langendorff rat heart preparation was perfused with K-H buffer at a rate of 10-12 mL/min. […] After the infusion was finished, the heart was either removed or perfusion was allowed to continue for an additional 10 minutes and then the heart was removed. The perfusion buffer was not recirculated through the heart. After removal of any connective tissue, the heart was opened, fluid in the chambers drained, and the interior blotted dry with filter paper. […] An aliquot of the K-H buffer was also weighed and counted. Concentration estimates were decay corrected. Studies were performed at least in duplicate.

The nature of series [5]: Biodistribution (heart, blood) after tail vein injection, radiotracer counting. The series is classed as in vivo, Sprague-Dawley rats. The conditions noted are these: for Blood (% ID/g) / Heart (% ID/g): rat, 0.5 μmol/kg tail vein. As to the method: Concentration estimates were decay corrected. Studies were performed at least in duplicate.

T2 sequence (P02454 152-1207 limits assumed): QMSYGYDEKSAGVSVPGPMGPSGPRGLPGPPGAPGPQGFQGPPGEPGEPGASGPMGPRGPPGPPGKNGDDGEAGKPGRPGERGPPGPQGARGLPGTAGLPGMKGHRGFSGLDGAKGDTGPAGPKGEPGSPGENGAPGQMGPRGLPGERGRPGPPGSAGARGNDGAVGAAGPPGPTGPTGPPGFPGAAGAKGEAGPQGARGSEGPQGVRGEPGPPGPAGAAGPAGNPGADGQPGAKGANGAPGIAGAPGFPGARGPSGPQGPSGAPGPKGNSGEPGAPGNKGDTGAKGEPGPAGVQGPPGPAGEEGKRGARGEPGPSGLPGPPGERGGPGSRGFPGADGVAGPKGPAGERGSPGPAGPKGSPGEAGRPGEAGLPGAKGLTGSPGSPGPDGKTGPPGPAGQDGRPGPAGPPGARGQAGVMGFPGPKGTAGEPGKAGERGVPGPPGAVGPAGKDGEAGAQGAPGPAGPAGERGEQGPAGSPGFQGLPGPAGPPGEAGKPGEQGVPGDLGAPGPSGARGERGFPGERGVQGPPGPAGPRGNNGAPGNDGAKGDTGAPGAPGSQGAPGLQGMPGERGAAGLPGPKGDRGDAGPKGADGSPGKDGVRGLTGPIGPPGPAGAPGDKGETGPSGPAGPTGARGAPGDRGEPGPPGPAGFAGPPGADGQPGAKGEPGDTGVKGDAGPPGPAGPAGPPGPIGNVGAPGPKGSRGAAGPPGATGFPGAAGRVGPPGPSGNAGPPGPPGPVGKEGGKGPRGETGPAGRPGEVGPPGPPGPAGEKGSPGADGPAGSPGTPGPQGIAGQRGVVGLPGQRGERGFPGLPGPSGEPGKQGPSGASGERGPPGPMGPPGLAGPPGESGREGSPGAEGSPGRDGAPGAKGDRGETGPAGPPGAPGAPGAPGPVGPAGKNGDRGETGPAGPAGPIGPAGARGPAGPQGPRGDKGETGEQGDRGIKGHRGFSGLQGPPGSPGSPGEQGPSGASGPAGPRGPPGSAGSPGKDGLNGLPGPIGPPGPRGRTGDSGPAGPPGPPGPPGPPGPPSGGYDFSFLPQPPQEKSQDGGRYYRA
T2 sequence (P02466 86-1125 limits assumed): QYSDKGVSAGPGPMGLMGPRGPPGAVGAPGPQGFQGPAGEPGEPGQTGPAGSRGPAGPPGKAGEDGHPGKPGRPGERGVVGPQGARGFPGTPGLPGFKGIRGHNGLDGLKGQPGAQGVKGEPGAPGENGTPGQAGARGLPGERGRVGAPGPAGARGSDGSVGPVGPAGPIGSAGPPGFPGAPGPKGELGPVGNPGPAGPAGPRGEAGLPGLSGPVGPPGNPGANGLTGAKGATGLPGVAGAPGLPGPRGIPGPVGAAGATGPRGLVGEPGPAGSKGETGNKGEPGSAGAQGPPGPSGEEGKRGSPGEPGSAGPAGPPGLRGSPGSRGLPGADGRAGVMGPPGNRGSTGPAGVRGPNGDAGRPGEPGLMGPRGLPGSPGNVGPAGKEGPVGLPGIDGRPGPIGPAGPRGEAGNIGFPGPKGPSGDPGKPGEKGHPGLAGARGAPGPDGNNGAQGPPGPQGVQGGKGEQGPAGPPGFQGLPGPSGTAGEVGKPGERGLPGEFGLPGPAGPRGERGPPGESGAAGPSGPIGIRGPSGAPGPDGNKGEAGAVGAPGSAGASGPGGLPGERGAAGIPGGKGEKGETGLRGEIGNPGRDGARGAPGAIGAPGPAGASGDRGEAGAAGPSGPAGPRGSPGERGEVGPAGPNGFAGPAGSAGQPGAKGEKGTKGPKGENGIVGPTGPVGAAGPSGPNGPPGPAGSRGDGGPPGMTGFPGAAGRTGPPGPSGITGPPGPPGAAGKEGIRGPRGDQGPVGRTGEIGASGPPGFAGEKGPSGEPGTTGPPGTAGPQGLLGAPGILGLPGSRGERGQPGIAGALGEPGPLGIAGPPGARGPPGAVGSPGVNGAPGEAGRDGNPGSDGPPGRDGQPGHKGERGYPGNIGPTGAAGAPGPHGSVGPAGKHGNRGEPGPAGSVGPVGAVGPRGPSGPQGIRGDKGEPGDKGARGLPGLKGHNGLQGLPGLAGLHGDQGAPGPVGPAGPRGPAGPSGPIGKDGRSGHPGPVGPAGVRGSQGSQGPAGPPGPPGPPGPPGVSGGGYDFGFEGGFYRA

For the substance 2 (WGWCEWAQNNCWNY) [compound 2], in series [1], the “Dried Human Collagen Binding” value came to 14%.
3 (PWWCHEMPSMCFGF) [compound 3]: the “Dried Human Collagen Binding” value in series [1] came out at 2%.
As for “13 (QWTCSGDEYTWHCNYE; disulfide 4-13 (inferred)) [compound 13]”, the “Dried Human Collagen Binding” value in series [1] is 78-85%.
For the substance “36 (SWSCGGDHNAWKCQYS; disulfide 4-13 (inferred)) [compound 36]”, the “Dried Human Collagen Binding” value in series [1] is recorded as 7%.
As to “37 (LWNCHGTDANWKCVLN; disulfide 4-13 (inferred)) [compound 37]”, in series [1], the “Dried Human Collagen Binding” value was found to be 7%.
Take “38 (GWSCHGDAADWPCQWS; disulfide 4-13 (inferred)) [compound 38]”: in series [1], the “Dried Human Collagen Binding” value stood at 6%.
On to “39 (GWQCSGDASVWNCDWI; disulfide 4-13 (inferred)) [compound 39]”, for which the “Dried Human Collagen Binding” value in series [1] amounted to 6%.
The same measure, in the same setting: as for “65 (KWECVHTKGEWYCETK; disulfide 4-13 (inferred)) [compound 65]”, the figure is 7%; as for 74 (QWHCTTRFPHHYCLYG) [compound 74], 67-69%.
For “112 (AKACSVHDEFGCLIS; disulfide 4-12 (inferred)) [compound 112]”, the “Dried Human Collagen Binding” value in series [1] is given as 9%.
“113 (FSECVWVNAYQCEYF; disulfide 4-12 (inferred)) [compound 113]”: the “Dried Human Collagen Binding” value in series [1] was found to be 3%.
On the same count and under the same terms, as for “130 (WWACQKGRHDWEKCRWL; disulfide 4-14 (inferred)) [compound 130]”, the figure is 32%.
On to “137 (YHACYQAGCWAW; disulfide 4-9 (inferred)) [compound 137]”, for which the “% Collagen Binding, Dried Rat” value in series [2] was 7%.
Turning to 142 (QWTCSADEYTWHCNYE) [compound 142], the “% Collagen Binding, Dried Rat” value in series [2] is 6%.
Consider 147 (QWTCSGDEYTAHCNYE) [compound 147], for which the “Dried Human Collagen Binding” value in series [1] amounted to 5%.
With 159 (YHACYQAGCWIW) [compound 159], in series [1], the “Dried Human Collagen Binding” value is on record as 7%.
For 163 (YHACYQAGCWIW) [compound 163], in series [2], the “% Collagen Binding, Dried Rat” value is listed as 53%.
For 165 (QWTCSGDEYTWHCNYE) [compound 165], the “Dried Human Collagen Binding” value in series [1] is recorded as 2%. Moreover, the “% Collagen Binding, Dried Rat” value in series [2] is 4%.
For 166 (QWTCSGDEYTWHCNYE) [compound 166], in series [1], the “Dried Human Collagen Binding” value is 2%. Besides, the “% Collagen Binding, Dried Rat” value in series [2] worked out at 3%.
As for 167 (QWTCSGDEYTWHCNYE) [compound 167], the “Dried Human Collagen Binding” value in series [1] came out at 4%.
168 (QWTCSGDEYTWHCNYE) [compound 168]: the “Dried Human Collagen Binding” value in series [1] is recorded as 3%. In addition, in series [2], the “% Collagen Binding, Dried Rat” value is recorded as 2%.
On to 169 (QWTCSGDEYTWHCNYE) [compound 169], for which the “% Collagen Binding, Dried Rat” value in series [2] was 4%.
The same measure, in the same setting: to 171 (QWTCSGDEYTWHCNYE) [compound 171] belongs 6%.
Take 173 (QWTCSGDEYTWHCNYE) [compound 173]: the “Dried Human Collagen Binding” value in series [1] turned out to be 5%. For the same substance, the “% Collagen Binding, Dried Rat” value in series [2] was found to be 4%.
Turning to 174 (QWTCSGDEYTWHCNYE) [compound 174], the “Dried Human Collagen Binding” value in series [1] amounted to 5%.
On to 175 (QWTCSGDEYTWHCNYE) [compound 175], for which the “Dried Human Collagen Binding” value in series [1] was found to be 2%. Moreover, in series [2], the “% Collagen Binding, Dried Rat” value came out at 2%.
Regarding 176 (QWTCSGDEYTWHCNYE) [compound 176], the “Dried Human Collagen Binding” value in series [1] turned out to be 2%. In addition, in series [2], the “% Collagen Binding, Dried Rat” value stood at 2%.
190 (GQWTCSGDEYTWHCNYE) [compound 190]: in series [2] (chelate conjugates), the “% Binding Collagen I Rat” value amounted to 5%.
For the substance “Compound ID 803: dual peptide, gadolinium tetramer; bb-DTPA tetramer diacid coupled to N-terminus of SEQ ID NO. 264 peptide ({bb‑DTPA gadolinium tetramer}-GQWHCTTSFPHHYCLYG; disulfide 5-14 (inferred); reading uncertain; also: Gd complex) [dual peptide, gadolinium tetramer; 264 peptide]”, in series [3], the “heart uptake relative to GdDTPA” value is given as “about 7 times”. The “fraction of compound present at 0 minutes post infusion that remains at 10 minutes” value in series [4] worked out at 54%.
For the substance “Q W T C S G D A Y T W H C N Y E (QWTCSGDAYTWHCNYE) [SEQ ID NO. 144]”, the “Heart:Blood” value in series [5] (1 min post injection) is reported as 0.38; in series [5] (5 min post injection), 1.08. The “Blood (% ID/g)” value is on record as 1.8 ± 0.2 % ID/g in series [5] (1 min post injection) and 0.46 ± 0.07 % ID/g in series [5] (5 min post injection). Also, the “Heart (% ID/g)” value in series [5] (1 min post injection) worked out at 0.68 ± 0.01 % ID/g; in series [5] (5 min post injection) it was 0.50 ± 0.16 % ID/g; in series [4] (0 min after infusion) it was 4.6 ± 1.1 % ID/g; in series [4] (10 min after infusion, non-recirculated buffer), 3.1 ± 1.6 % ID/g. Moreover, the “Heart:Buffer” value in series [3] (buffer 3.0 μM) was 3.3 ± 0.8; in series [3] (buffer 30 μM), 4.0 ± 1.7. For the same substance, the “Heart” value is 9.8 ± 2.3 nmol/g in series [3] (buffer 3.0 μM) and 120 ± 50 nmol/g in series [3] (buffer 30 μM). The “heart uptake relative to GdDTPA” value in series [3] is reported as “about 10 times”. The “fraction of compound present at 0 minutes post infusion that remains at 10 minutes” value in series [4] amounted to 68%.
Turning to “Q W T C S G D E Y T w H C N Y E (QWTCSGDEYT[dW]HCNYE; disulfide 4-13 (inferred)) [SEQ ID NO. 173]”, in series [3] (buffer 3.0 μM), the “Heart:Buffer” value came to 0.37 ± 0.08 and the “Heart” value is on record as 1.1 ± 0.2 nmol/g. Besides, in series [3] (heart concentrations compared with GdDTPA), the “specific heart uptake (in words)” value is reported as “no specific uptake”.
